Molecular target: T1, FaRAV1 (Fragaria × ananassa, UniProt A0A3Q8TB28 1-301)
T1 sequence: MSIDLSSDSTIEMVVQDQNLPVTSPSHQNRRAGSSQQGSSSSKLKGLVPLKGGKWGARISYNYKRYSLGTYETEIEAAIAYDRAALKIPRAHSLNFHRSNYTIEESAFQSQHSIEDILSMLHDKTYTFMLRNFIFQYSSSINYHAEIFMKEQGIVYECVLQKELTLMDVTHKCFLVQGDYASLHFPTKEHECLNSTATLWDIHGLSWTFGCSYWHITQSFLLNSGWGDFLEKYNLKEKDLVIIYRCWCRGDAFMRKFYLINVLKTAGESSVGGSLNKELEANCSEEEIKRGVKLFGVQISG
Assay: EMSA; 8 nM biotinylated probe; LightShift Chemiluminescent EMSA kit (Thermo), per manufacturer and Ge et al. 2017; 8 nM biotin probe; binding buffer, pH and temperature not stated
Details: protein: recombinant; tags: His (pET-32a; described as N-terminal FaRAV1-His fusion); label: 3'-biotin; blunt

B1: FaMYB10 promoter mutant probe (dsDNA)
DNA 1: AGGGTGGGGACTCGACAGTTTTTAGCTAACTTCCACATGCAATGGATCGAAAT
DNA 2: ATTTCGATCCATTGCATGTGGAAGTTAGCTAAAAACTGTCGAGTCCCCACCCT
binding result: no binding
